According to the supplement of paper PMC10724198:

Tests used:
Saccharomyces cerevisiae [1] = assay: protein stability index of tFT-peptide fusion in wild type (PSI (0-1 scale)); higher = more stable (slower turnover); conditions: genetic background: wild type
Saccharomyces cerevisiae [2] = assay: protein stability index of tFT-peptide fusion in deletion strain of DOA10 (PSI (0-1 scale)); higher = more stable (slower turnover)
Description: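 MPS profiling in S. cerevisiae of two library types built from selected 12-aa C-degron peptides (IN1, IN2, LN1, LN3, VN2, R1-R5, W1-W3, Atg1 and Rpa12 C-termini): saturation mutagenesis libraries and C-terminal +1 capping libraries (13 aa). Each peptide is fused to the C-terminus of a sfGFP-mCherry timer, after a GGGS linker. Cells are FACS-sorted into 8 mCherry/sfGFP bins and sequenced. PSI runs from 0 (unstable) to 1 (stable), measured once in wild type and in the das1Δ or doa10Δ background.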

Saccharomyces cerevisiae [3] = assay: protein stability index of tFT-peptide fusion in deletion strain of DAS1 (PSI (0-1 scale)); higher = more stable (slower turnover)
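Wherever protein stability index of tFT-peptide fusion in deletion strain of DAS1 is given: PSI is a weighted mean of each variant's read distribution over the sorted stability bins, computed only for variants having over 10 reads in total.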
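Wherever protein stability index of tFT-peptide fusion in deletion strain of DOA10 is given: PSI per variant is the weighted mean of its sequencing read distribution over the sorted stability bins, counting only variants with over 10 reads summed across bins.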
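Wherever protein stability index of tFT-peptide fusion in wild type is given: PSI derived as read-weighted mean over the 8 sorting bins, only variants exceeding 10 total reads kept, mCherry placed adjacent to the peptide and sfGFP distal.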

| Sequence | protein stability index (Saccharomyces cerevisiae [1]) | protein stability index (Saccharomyces cerevisiae [2]) | protein stability index (Saccharomyces cerevisiae [3]) |
| --- | --- | --- | --- |
| CLVSLPILLFFRM | 0.0495 | 0.458 | – |
| RVTRLDAIIFRI | 0.499 | 0.703 | – |
| RSLRVLLPLYFRM | 0.202 | 0.411 | – |
| RYTRLDAIYFRI | 0.421 | 0.673 | – |
| RTLRVLLPLYFR | 0.304 | 0.657 | – |
| RSLEVLLPLYFR | 0.219 | 0.691 | – |
| RSLRVLLPLPFR | 0.64 | 0.676 | – |
| RVTRDDAIYFRI | 0.652 | 0.684 | – |
| AITLEMCPLLLR | 0.372 | 0.667 | – |
| AITLPMCPFLLR | 0.624 | 0.661 | – |
| GLYMCSVVCWFR | 0.253 | 0.314 | – |
| RVTRLDAIYFGI | 0.682 | 0.721 | – |
| RSLRVLLPLNFR | 0.535 | 0.671 | – |
| RVTYLDAIYFRI | 0.393 | 0.563 | – |
| AIWLPMCPLLLR | 0.224 | 0.657 | – |
| AITLPCCPLLLR | 0.236 | 0.659 | – |
| CLVDLPILLFFR | 0.0636 | 0.635 | – |
| AITLPMCPLALR | 0.577 | 0.643 | – |
| CLVILPILLFFR | 0.0975 | 0.456 | – |
| RVTRLDDIYFRI | 0.689 | 0.731 | – |
| CLVSLPILLFQR | 0.515 | 0.583 | – |
| GITLPMCPLLLR | 0.099 | 0.668 | – |
| RVTRLDAIYDRI | 0.696 | 0.731 | – |

| Sequence | protein stability index (Saccharomyces cerevisiae [1]) | protein stability index (Saccharomyces cerevisiae [2]) | protein stability index (Saccharomyces cerevisiae [3]) |
| --- | --- | --- | --- |
| GLYMCSVGCWFRY | 0.173 | 0.619 | – |
| RVTRLDAEYFRI | 0.675 | 0.693 | – |
| CLVSLPILLCFR | 0.0846 | 0.564 | – |
| YITLPMCPLLLR | 0.337 | 0.616 | – |
| RVTRLDAFYFRI | 0.644 | 0.713 | – |
| CLVSLPILLFFS | 0.297 | 0.467 | – |
| RVTRADAIYFRI | 0.525 | 0.684 | – |
| GLYRCSVGCWFR | 0.428 | 0.67 | – |
| AITLPMCPLLLY | 0.404 | 0.517 | – |
| CAVSLPILLFFR | 0.0547 | 0.627 | – |
| CTVSLPILLFFR | 0.0564 | 0.619 | – |
| AITLPMCPLLCR | 0.238 | 0.265 | – |
| GYYMCSVGCWFR | 0.227 | 0.643 | – |
| RSLRVLLPLYQR | 0.617 | 0.659 | – |
| AITLPMCPLLNR | 0.644 | 0.671 | – |
| AITLPMCPLLLRG | 0.31 | 0.55 | – |
| RVTRLDAIYFRID | 0.54 | 0.603 | – |
| RSLSVLLPLYFR | 0.289 | 0.682 | – |
| AITLPMCPLELR | 0.641 | 0.682 | – |
| RSLRVLLPFYFR | 0.564 | 0.668 | – |
| VRGAVGSWRLVG | 0.157 | – | 0.68 |
| LKIPRQKMNHQN | 0.484 | – | 0.679 |
| RLIQPTPVQFLN | 0.192 | – | 0.563 |

| Sequence | protein stability index (Saccharomyces cerevisiae [1]) | protein stability index (Saccharomyces cerevisiae [2]) | protein stability index (Saccharomyces cerevisiae [3]) |
| --- | --- | --- | --- |
| LVVYLSCFACIN | 0.0181 | – | 0.0433 |
| PSLAARFWRVVG | 0.14 | – | 0.679 |
| PDKRNHLPKLLN | 0.148 | – | 0.612 |
| KKHKKSQKQKIN | 0.0607 | – | 0.584 |
| AKILRQKMNHQN | 0.185 | – | 0.688 |
| PSLAASFGRVVG | 0.661 | – | 0.672 |
| RLIQPPPVQFLN | 0.06 | – | 0.641 |
| LVVYLSCVACINQ | 0.187 | – | 0.207 |
| RLWQPLPVQFLN | 0.069 | – | 0.608 |
| CTSCGYKFRNNN | 0.681 | – | 0.703 |
| ARWRVGQWRGAS | 0.614 | – | 0.682 |
| ARWRVGLWRGWS | 0.668 | – | 0.69 |
| CTSCGYKGRTNN | 0.658 | – | 0.674 |
| KAHKKGQKQKIN | 0.111 | – | 0.858 |
| ATSCGYKFRTNN | 0.235 | – | 0.671 |
| RLIQPLPVQFLNS | 0.385 | – | 0.658 |
| PSLAASFWRVFG | 0.367 | – | 0.699 |
| VRGGVGGWRLVG | 0.206 | – | 0.683 |
| LVVDLSCVACIN | 0.137 | – | 0.367 |
| PDKRVHLIKLLN | 0.128 | – | 0.61 |
| KDKRNHLIKLLN | 0.0684 | – | 0.723 |
| LKILRQKMNHQV | 0.189 | – | 0.671 |
| RLIQPKPVQFLN | 0.0691 | – | 0.586 |

| Sequence | protein stability index (Saccharomyces cerevisiae [1]) | protein stability index (Saccharomyces cerevisiae [2]) | protein stability index (Saccharomyces cerevisiae [3]) |
| --- | --- | --- | --- |
| VRHAVGGWRLVG | 0.116 | – | 0.671 |
| ARWRVGLPRGAS | 0.688 | – | 0.666 |
| KKHKKGQEQKIN | 0.109 | – | 0.543 |
| RGIQPLPVQFLN | 0.112 | – | 0.581 |
| PSLAASFWNVVG | 0.331 | – | 0.69 |
| LVVYLSCVAWIN | 0.0134 | – | 0.0302 |
| PSLAASFWRYVG | 0.134 | – | 0.657 |
| ANWRVGLWRGAS | 0.498 | – | 0.685 |
| LVVYLSPVACIN | 0.18 | – | 0.278 |
| PDKRNHLIKLMN | 0.119 | – | 0.605 |
| LKILRQKMNHQW | 0.255 | – | 0.679 |
| LKILRQKMNEQN | 0.253 | – | 0.663 |
| VRGAVGGWRLVGY | 0.638 | – | 0.682 |
| LVVYLSCVACQN | 0.0434 | – | 0.097 |
| CLSCGYKFRTNN | 0.228 | – | 0.701 |
| KKHKKGQKQKIW | 0.637 | – | 0.558 |
| VIGAVGGWRLVG | 0.115 | – | 0.689 |
| PDKRNHLDKLLN | 0.574 | – | 0.578 |
| PSLAASFWRFVG | 0.137 | – | 0.707 |
| PEKRNHLIKLLN | 0.101 | – | 0.608 |
